Measured values: the supplement of paper PMC10126150
± gives the standard deviation of the averaged measurements.

tested on: ATP; assay: switch fluorescence ratio, 500 uM ATP over buffer (Cy3 cluster intensity, sum of 5 cycles each) (fold (ratio)); higher = stronger signal-on switching upon ATP binding; sequences stand for … in TCGTCGGCAGCGTCAGATGTGTATAAGAGACAGTTTTTTTTTTTTTTTTTTTTTTTTT…TC; settings: aptamer strand: ATP DNA aptamer (quencher-CACCTGGGGGAGTATTGCGGAGGAAGG + anchor), 100 nM annealed; ATP concentration: 500 uM
In short: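 The quencher-labelled ATP aptamer, at 100 nM, was annealed to Cy3-labelled switching-strand clusters on a modified Illumina MiSeq flow-cell. The clusters were imaged in selection buffer, then after 15 min with 500 uM ATP at 22 °C, and this buffer/ATP cycle ran five times with NaOH stripping and re-annealing between runs. Per-cluster fluorescence ratios, summed target-cycle over summed buffer-cycle Cy3 intensity, were averaged per switch-domain sequence. Clusters outside 100-1000 RFU were excluded.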
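Note: ATP exposure 15 min at 22 °C before imaging.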

Sequence | switch fluorescence ratio
GAATAGTGGG | 1.006 ± 0.005
GAATATATAG | 0.965 ± 0.011
GAATATTGAG | 0.99 ± 0.019
GAATCATAGA | 1.004 ± 0.0094
GAATCCGCCC | 2.85 ± 0.74
GAATCGTCG | 0.983 ± 0.025
GAATGGAGAA | 0.992 ± 0.078
GAATGGAGTA | 1.04 ± 0.039
GAATGGATGC | 1.01 ± 0.0064
GAATGGCCTT | 0.9949 ± 0.0072
GAATGGGGTG | 1.02 ± 0.041
GAATGGTTTC | 0.9947 ± 0.0053
GAATGTGGGC | 0.955 ± 0.028
GAATGTTGTT | 0.9476 ± 0.0092
GAATTACGGG | 1.02 ± 0.023
GAATTAGACG | 0.977 ± 0.01
GAATTAGGTT | 1.01 ± 0.077
GAATTATGCC | 0.977 ± 0.021
GAATTGAGGG | 0.97 ± 0.054
GAATTGGT | 1.01 ± 0.012
GAATTGGTTG | 1 ± 0.04
GAATTGTTGT | 1 ± 0.02
GAATTTAAGT | 1.009 ± 0.0048
GAATTTACCT | 1.2 ± 0.039
GAATTTAGGT | 0.996 ± 0.028

Sequence | switch fluorescence ratio
GAATTTATAT | 0.998 ± 0.0032
GAATTTGAGA | 0.997 ± 0.019
GAATTTGATG | 1 ± 0.042
GACAAAGCGG | 1.07 ± 0.041
GACAAAGGGC | 1.08 ± 0.027
GACACCACAG | 1.162 ± 0.0035
GACACCATTC | 1.13 ± 0.017
GACACTGGTA | 1 ± 0.027
GACACTTGCT | 0.99 ± 0.035
GACAGAATGT | 0.976 ± 0.023
GACAGCAAAT | 1.406 ± 0.0043
GACAGCCTTA | 1.01 ± 0.0069
GACAGCGCTA | 1.01 ± 0.042
GACAGTAGGG | 1 ± 0.043
GACAGTGGTT | 1.05 ± 0.059
GACATATACA | 1.07 ± 0.025
GACATGAGTT | 0.984 ± 0.026
GACATGGCTT | 0.975 ± 0.011
GACATGTGGC | 1.03 ± 0.037
GACATGTTTT | 1.039 ± 0.0097
GACATTTGCA | 1.03 ± 0.023
GACCAAGTCA | 0.997 ± 0.026
GACCATGTAC | 1.48 ± 0.1
GACCCCGATT | 1.05 ± 0.022
GACCCTATAA | 1.11 ± 0.066

Sequence | switch fluorescence ratio
GACCCTTAGA | 1.01 ± 0.011
GACCGAAAAT | 1.055 ± 0.0015
GACCGCATTT | 1.68 ± 0.46
GACCGGCATG | 1.01 ± 0.024
GACCGGCGGT | 0.996 ± 0.035
GACCGTGGGG | 1 ± 0.027
GACCTAGCTA | 1.14 ± 0.053
GACCTCATTT | 1.04 ± 0.032
GACCTGGGTC | 1.01 ± 0.0023
GACGAACATT | 1.18 ± 0.21
GACGAAGTTG | 1.01 ± 0.029
GACGAATTGG | 0.997 ± 0.021
GACGACGGTT | 1.55 ± 0.1
GACGAGCCAG | 1.002 ± 0.0066
GACGATAGTT | 0.977 ± 0.026
GACGATTGTT | 0.988 ± 0.021
GACGCATCTA | 3.35 ± 0.36
GACGCGAGTT | 1.09 ± 0.022
GACGCTAAAG | 1.08 ± 0.029
GACGGACTTT | 1.143 ± 0.006
GACGGAGGCT | 1.04 ± 0.042
GACGGCAATG | 1.05 ± 0.032
GACGGCGCAG | 1.06 ± 0.14
GACGGCGGGC | 0.989 ± 0.023
GACGGGGGAT | 1.081 ± 0.0031

Sequence | switch fluorescence ratio
GACGGGGTGC | 1.3 ± 0.24
GACGGGTGTC | 0.967 ± 0.012
GACGGGTTGG | 0.992 ± 0.045
GACGGGTTTG | 0.9915 ± 0.0074
GACGGTTGGG | 0.983 ± 0.026
GACGGTTTAG | 1.04 ± 0.058
GACGTAGACA | 1.042 ± 0.01
GACGTCGGTC | 0.9984 ± 0.0089
GACGTGCAGG | 1.07 ± 0.11
GACGTGTTGG | 1.01 ± 0.065
GACGTTAGCT | 1.03 ± 0.012
GACGTTAGGG | 0.957 ± 0.042
GACGTTTACA | 1.17 ± 0.016
GACTAAAAGA | 0.99 ± 0.055
GACTAATTTT | 0.9844 ± 0.0081
GACTAGGGGG | 1 ± 0.048
GACTAGTGGT | 1.01 ± 0.035
GACTATCTAG | 0.975 ± 0.056
GACTATGACC | 1.05 ± 0.013
GACTATGGGA | 1.42 ± 0.55
GACTCATAAT | 1.004 ± 0.0015
GACTCCGATT | 2.28 ± 0.1
GACTCTACGG | 1.05 ± 0.032
GACTGAAAAA | 0.981 ± 0.14
GACTGAGAGT | 1 ± 0.054

Sequence | switch fluorescence ratio
GACTGAGTTC | 0.972 ± 0.042
GACTGGGCGG | 1 ± 0.021
GACTGGGGG | 1.0292 ± 0.00087
GACTGGGGGA | 1.01 ± 0.025
GACTGGTATG | 0.972 ± 0.011
GACTTACCAC | 1.17 ± 0.052
GACTTAGGAA | 1.05 ± 0.072
GACTTGAATT | 0.99 ± 0.034
GACTTGGTAG | 0.9884 ± 0.0053
GACTTGGTGT | 1.047 ± 0.0092
GACTTGTTGG | 0.974 ± 0.042
GACTTTAGCG | 1.03 ± 0.023
GACTTTGAGC | 1.01 ± 0.016
GACTTTGTAC | 1.06 ± 0.014
GACTTTTGGG | 1.01 ± 0.033
GAGAAAAAGG | 0.976 ± 0.013
GAGAACGGTG | 1 ± 0.032
GAGAACGTAG | 0.9817 ± 0.0066
GAGAAGGGGG | 1.04 ± 0.049
GAGAAGGGTG | 1.01 ± 0.071
GAGAAGTGTG | 0.993 ± 0.038
GAGAATTATA | 0.978 ± 0.019
GAGAGAACTT | 1.03 ± 0.021
GAGAGCAGGG | 0.995 ± 0.026
GAGAGCCTTA | 0.9853 ± 0.0079

Sequence | switch fluorescence ratio
GAGAGGAGAG | 0.998 ± 0.035
GAGAGGAGCT | 1.01 ± 0.039
GAGAGGGGGC | 0.931 ± 0.018
GAGAGTGTGT | 0.982 ± 0.011
GAGATACATG | 1.02 ± 0.044
GAGATCGGTA | 1.006 ± 0.0069
GAGATGCTGC | 1.05 ± 0.017
GAGATGGGGG | 0.981 ± 0.038
GAGATGTACC | 1.03 ± 0.026
GAGATTAAGA | 0.973 ± 0.1
GAGATTCGCT | 0.988 ± 0.014
GAGATTGGGG | 0.99 ± 0.022
GAGCAGGGGT | 1.04 ± 0.063
GAGCATAGGG | 1.02 ± 0.013
GAGCATTGGA | 0.992 ± 0.036
GAGCCACGGG | 1.04 ± 0.015
GAGCCTGGGT | 1.01 ± 0.017
GAGCGAAGGA | 1.01 ± 0.029
GAGCGCGGCG | 0.977 ± 0.048
GAGCGTAGTA | 1 ± 0.037
GAGCGTCTGG | 1.02 ± 0.011
GAGCTACGGG | 1.01 ± 0.033
GAGCTAGGCA | 0.958 ± 0.03
GAGCTAGGGT | 0.9905 ± 0.006
GAGCTAGTGT | 0.9792 ± 0.0081

Sequence | switch fluorescence ratio
GAGCTCAGTG | 1.002 ± 0.0069
GAGCTGAATG | 0.9518 ± 0.0063
GAGCTGGATA | 0.967 ± 0.03
GAGCTTAGGA | 0.988 ± 0.013
GAGCTTGCGT | 1.01 ± 0.025
GAGCTTGGCA | 0.9859 ± 0.0058
GAGCTTGGGG | 0.991 ± 0.028
GAGCTTTTCA | 0.965 ± 0.023
GAGGAAAATA | 0.981 ± 0.011
GAGGAAGTTA | 1.06 ± 0.097
GAGGAATTTT | 0.983 ± 0.0093
GAGGACTGTA | 1.09 ± 0.025
GAGGAGCTCG | 0.9522 ± 0.0045
GAGGAGGATA | 0.953 ± 0.024
GAGGAGGCGG | 1.03 ± 0.014
GAGGAGGGTT | 0.992 ± 0.051
GAGGATAAGT | 0.988 ± 0.078
GAGGATCTGT | 0.961 ± 0.023
GAGGATGGGG | 0.977 ± 0.039
GAGGCAGGGA | 1.19 ± 0.16
GAGGCATTTT | 1.09 ± 0.089
GAGGCCTTAC | 1.69 ± 0.043
GAGGCGCGGA | 1.01 ± 0.013
GAGGCTGATA | 1.02 ± 0.013
GAGGCTTGTT | 0.981 ± 0.01

Sequence | switch fluorescence ratio
GAGGGAAGAT | 0.999 ± 0.014
GAGGGACGCT | 1.02 ± 0.033
GAGGGAGCGT | 1.002 ± 0.0083
GAGGGAGGGG | 1.02 ± 0.044
GAGGGAGGTA | 0.9658 ± 0.006
GAGGGAGTAG | 0.9962 ± 0.0012
GAGGGAGTTG | 0.997 ± 0.017
GAGGGATATT | 1.02 ± 0.022
GAGGGATTCG | 1.01 ± 0.014
GAGGGATTGT | 1 ± 0.021
GAGGGCATCA | 0.99 ± 0.015
GAGGGCGGAC | 1.05 ± 0.19
GAGGGCTGGG | 0.978 ± 0.079
GAGGGCTTAG | 0.992 ± 0.016
GAGGGCTTCG | 1.02 ± 0.1
GAGGGGGACA | 0.9779 ± 0.0081
GAGGGGGACG | 1 ± 0.14
GAGGGGGAGA | 0.99 ± 0.024
GAGGGGGATA | 1.03 ± 0.058
GAGGGGGCCG | 0.996 ± 0.034
GAGGGGGCCT | 0.989 ± 0.049
GAGGGGGGAA | 1.01 ± 0.03
GAGGGGGGCT | 1.023 ± 0.006
GAGGGGGGTT | 1 ± 0.027
GAGGGGGTCG | 1.02 ± 0.079
